The results in this text go back to paper PMC3947452.

A word on the IC50: it is the midpoint of a concentration-inhibition curve.

In the test the target is Flag-tagged PKMζ (protein kinase M ζ) (human) (UniProt Q05513). In words: co-IP.
Chain of UniProt Q05513 (Q05513 184-592): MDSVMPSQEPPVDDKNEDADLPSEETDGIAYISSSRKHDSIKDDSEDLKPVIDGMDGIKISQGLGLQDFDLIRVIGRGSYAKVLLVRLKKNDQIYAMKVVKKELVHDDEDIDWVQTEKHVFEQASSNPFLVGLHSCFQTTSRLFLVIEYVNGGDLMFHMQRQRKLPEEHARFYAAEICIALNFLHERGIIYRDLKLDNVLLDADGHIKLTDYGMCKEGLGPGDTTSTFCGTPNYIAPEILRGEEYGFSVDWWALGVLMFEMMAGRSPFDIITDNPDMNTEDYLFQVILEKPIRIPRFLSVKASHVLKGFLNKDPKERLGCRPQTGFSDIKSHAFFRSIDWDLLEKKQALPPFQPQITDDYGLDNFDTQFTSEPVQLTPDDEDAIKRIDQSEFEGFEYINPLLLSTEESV

“synthetic biotin-labeled peptide containing the binding motif (KIBRA position 948-978)” registered an IC50 of 60 nM. This counts as double-digit nanomolar.
